# Test results: US9732156B2, “Methods of treating rheumatoid arthritis using antibodies to matrix metalloproteinase 9” (Gilead Biologics, Inc., priority 2012, dated 2017)
# B1: AB0041: mouse monoclonal antibody to human MMP9, mouse IgG2b heavy chain (SEQ ID NO: 1) and mouse kappa light chain (SEQ ID NO: 2) (antibody, listed as Mus musculus)
# heavy: MAVLVLFLCLVAFPSCVLSQVQLKESGPGLVAPSQSLSITCTVSGFSLLSYGVHWVRQPPGKGLEWLGVIWTGGTTNYNSALMSRLSISKDDSKSQVFLKMNSLQTDDTAIYYCARYYYGMDYWGQGTSVTVSSAKTTPPSVYPLAPGCGDTTGSSVTLGCLVKGYFPESVTVTWNSGSLSSSVHTFPALLQSGLYTMSSSVTVPSSTWPSQTVTCSVAHPASSTTVDKKLEPSGPISTINPCPPCKECHKCPAPNLEGGPSVFIFPPNIKDVLMISLTPKVTCVVVDVSEDDPDVRISWFVNNVEVHTAQTQTHREDYNSTIRVVSALPIQHQDWMSGKEFKCKVNNKDLPSPIERTISKIKGLVRAPQVYILPPPAEQLSRKDVSLTCLVVGFNPGDISVEWTSNGHTEENYKDTAPVLDSDGSYFIYSKLDIKTSKWEKTDSFSCNVRHEGLKNYYLKKTISRSPGK
# light: MESQIQVFVFVFLWLSGVDGDIVMTQSHKFMSTSVGDRVSITCKASQDVRNTVAWYQQKTGQSPKLLIYSSSYRNTGVPDRFTGSGSGTDFTFTISSVQAEDLAVYFCQQHYITPYTFGGGTKLEIKRADAAPTVSIFPPSSEQLTSGGASVVCFLNNFYPKDINVKWKIDGSERQNGVLNSWTDQDSKDSTYSMSSTLTLTKDEYERHNSYTCEATHKTSTSPIVKSFNRNEC
# modifications: CHAIN (1)...(470) AB0041 heavy chain; CHAIN (1)...(234) AB0041 light chain
# Key:
# [1] = system: adjuvant arthritis (AIA); assay: Adjuvant-induced arthritis (AIA) rat model of established disease; conditions: in vivo
# Description: The anti-MMP9 antibody, AB0041, was efficacious in treating both inflammation and joint damage in both adjuvant and collagen-induced arthritis (AIA, CIA) rat rheumatoid arthritis models of established disease.
# [2] = system: lipopolysaccharide (LPS)-induced animal death; assay: LPS-induced septicemia model; assay type: in vivo, rat; conditions: after four days
# [3] = AB0041 serum levels by indirect binding ELISA in the MSS study; assay type: in vivo, rat; conditions: Day 0 to Day 28; 50 mg/kg IV twice per week
# Method: Levels of AB0041 in rat serum were measured by an indirect binding ELISA. ELISA plates were coated with 2 μg/ml of […] in 50 mM sodium borate overnight at 4° C. The plates were blocked with 5% bovine serum albumin (BSA) in phosphate buffered saline, pH 7.4 (PBS) and washed with 0.05% Tween 20 in PBS (PBST). A standard curve was prepared by serially diluting AB0041 in PBST to generate a series ranging from 3,000 ng/ml to 1.5 ng/ml. Serum samples were diluted at least 1:100 in PBST then added to the pre-coated ELISA plate. After one-hour incubation, the plates were washed and polyclonal goat-anti mouse IgG-HRP detection antibody (Thermo Scientific, Fair Lawn, N.J.) was added to the plate at 1:10,000 dilution in 0.5% BSA/PBS. The plates were washed and signal was detected by addition of 3,3′,5,5′-tetramethylbenzidine (TMB) (Sigma Aldrich, St. Louis, Mo.) for 2 minutes. The reaction was stopped by addition of 1M hydrochloric acid (HCl) and absorbance at 450 nm was measured. AB0041 levels in serum were back-calculated using a four-parameter curve fit in the SoftMax software package (Molecular Devices).
# [4] = system: CD4+ T cell; assay: EpiScreen ex vivo human T cell activation assay (immunogenicity); assay type: cell-based
# Method: The potential clinical immunogenicity of the chimeric MMP9 antibody AB0041 and the humanized MMP9 antibody AB0045 was assessed. An ex vivo human T cell activation assay, the EpiScreen (Antitope, Ltd., Cambridge, UK) was used. The T cell activation in the EpiScreen assay has been correlated to the antibody/protein therapeutic responses in patients. The response of CD4+ T cell in 20 healthy donors, representing a variety of HLA haplotypes, was examined. […] A positive control of KLH induced a response in 95% of the donors, with a magnitude of 6.34+/−2.77 (mean+/−standard deviation).
# [5] = molecular target: MMP9 (Homo sapiens, UniProt P14780); assay: Comparison of binding and inhibitory properties of anti-MMP9 antibodies; conditions: AB0045 compared with AB0041
# [6] = system: collagen-induced arthritis; assay: Collagen-induced arthritis (CIA) rat model of established disease; assay type: in vivo
# Method: This example provides additional characterizations of the animals in example 7 that were treated with either vehicle, AB0041 (in the rat model) or AB0046 (in the mouse model) at 2, 10, or 50 mg/Kg, Enbrel at 10 mg/Kg, or methotrexate (MTX) at 0.5 mg/Kg.
# In addition to clinical scoring in Table 6 that was conducted in example 7, paw swelling, ankle diameter and body weights of the treated animals were measured. The measurements were conducted once a week before randomization and three times a week thereafter.
# In addition, hind limbs were examined microscopically for soft-tissue changes (edema, tissue/vessel necrosis, inflammatory cell infiltration, and fibroplasias) and cartilage and bone changes (cartilage erosion, bone erosion, periosteal bone formation, synovitis, pannus formation, and joint destruction). […] The severity scores were based on global changes in each limb.
# For anti-TNF-alpha scoring, the entire region of the limb anterior to the tarsal-metatarsal joint was scored. Anti-CD68 staining was evaluated using 3-4 images per limb of synovial membranes in the joints formed by the talus bone, with the scores of each membrane averaged and the value assigned as the overall inflammation score. […] Also, MMP9-expressing cells were identified as osteoclasts and cells of the monocyte/macrophage lineage.
# Further, serum panel analyses of terminal serum samples were characterized using ELISA. […] AB0046 titers were measured in terminal serum samples.
# [7] = system: Lewis rats; conditions: rat, in vivo
# Method: AB0041 was evaluated for safety in Lewis rats in comparison to the pan-MMP inhibitor, Marimastat, in a 28-day study.
# Six rats per group were intravenously administered twice per week with either AB0041 at 50 mg/kg or Vehicle-A (10 mM sodium phosphate, pH 6.5, 140 mM sodium chloride, 0.01% Tween20). In addition, six rats per group were treated with Marimastat or Vehicle-M (50% DMSO/50% water) through a surgically implanted subcutaneous Alzet pump (Alzet, Cupertino, Calif.), which delivered at a rate of 2.5 μl/hour for a period of 28 days. The Marimastat release rate was between 6.8 to 5.7 mg/kg/day.
# Animals were observed and scored daily for signs of MSS, such as reluctance to move and avoidance of the use of the hind feet. The following system was used to score resting posture, gait and willingness to move: resting posture was scored as 0 (normal), 1 (resting on one foot) or 2 (resting on neither one foot nor two feet). Gait was scored as either 0 (normal), 1 (avoids use of one hind foot) or 2 (avoids use of both hind feet). Willingness-to-move upon stimulation was scored as either 0 (normal movement), 1 (somewhat reluctant to move), 2 (moderately reluctant to move) or 3 (very reluctant to move). In addition, the body weights were recorded twice weekly.
# Total scores were calculated as the sum of gait score, resting posture score and willingness-to-move score for each animal. Mean total scores per group were calculated as the average of the total scores from all individual animals per group per day.
# Serum was collected from all rats on one day before and days 1, 7, 10, 14, 17, 21, 24, 28 post administration. Serum was centrifuged at 10,000×g for 10 minutes and collected for storage at −20° C. Serum was subject to multianalyte serum protein analysis (RodentMAPv2.0, IDEXX Laboratories).
# Tissues and limbs from the rats were harvested and fixed in 10% neutral buffered formalin for histopathologic analysis using hematoxylin and eosin (H&E).
# MMP9, sequence (P14780 94-707, species assumed): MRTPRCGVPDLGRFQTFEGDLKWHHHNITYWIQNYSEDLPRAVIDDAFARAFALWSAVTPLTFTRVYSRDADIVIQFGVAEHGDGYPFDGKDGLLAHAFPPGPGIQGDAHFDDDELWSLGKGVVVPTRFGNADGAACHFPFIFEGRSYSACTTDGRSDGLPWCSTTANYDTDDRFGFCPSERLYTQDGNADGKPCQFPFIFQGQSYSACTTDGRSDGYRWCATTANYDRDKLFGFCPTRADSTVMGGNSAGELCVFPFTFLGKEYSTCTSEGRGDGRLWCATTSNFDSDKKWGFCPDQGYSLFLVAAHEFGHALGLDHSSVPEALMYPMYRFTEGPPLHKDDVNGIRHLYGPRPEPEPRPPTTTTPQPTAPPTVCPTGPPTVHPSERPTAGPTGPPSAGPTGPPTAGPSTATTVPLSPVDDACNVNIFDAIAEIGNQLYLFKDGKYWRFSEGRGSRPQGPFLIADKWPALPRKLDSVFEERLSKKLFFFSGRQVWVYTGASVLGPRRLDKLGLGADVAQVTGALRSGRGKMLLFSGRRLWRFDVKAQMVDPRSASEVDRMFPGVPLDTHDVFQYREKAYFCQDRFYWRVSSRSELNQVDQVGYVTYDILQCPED
molecule,measurement,setting,value
B1,inflammation and joint damage,[1],efficacious
same,animals surviving,[2],70%
same,mean steady-state serum levels,[3],2 to 4 mg/mL
same,donors in which a response was induced,"[4]; CD4+ T cell response, 20 healthy donors of various HLA haplotypes",20%
same,magnitude of response,[4]; mean+/−standard deviation,2.29+/−0.36
same,binding and inhibitory properties,[5],equivalent binding and inhibitory properties
same,"soft tissue disease, joint damage and destruction (histology)",[6]; 50 mg/kg,"reduced all measures of soft tissue diseases, joint damage and destruction"
same,CD68 score by IHC,"[6]; 50 mg/kg, compared to vehicle",significant reduction
same,TNF-alpha score by IHC,"[6]; 50 mg/kg, compared to vehicle",significant reduction
same,arthritis clinical scores,"[6]; 50, 10 and 2 mg/kg twice per week (4 doses)",reduced arthritis clinical scores
same,"qualitative and quantitative measurements of clinical disease (paw swelling, ankle diameter, body weight)","[6]; all doses (2, 10, 50 mg/Kg)",significant reversal/mitigation
same,"serum levels of TNFα, IL-6 and IL-17A",[6]; end of study,efficacious in reducing serum levels
same,"serum markers (TIMP-1, GM-CSF, MIP-2, MIP-1β, M-CSF-1, OSM, CXCL10, MCP-5, IL-12p70, INF-γ, IL-12, IL-7)","[6]; terminal serum, ELISA",statistically significant reduction
same,H&E staining of hind knee joints,[7],No synovitis or fibrosis was observed
same,average MSS score,[7],zero
same,histopathology of primary organs (H&E),[7],No treatment-related abnormalities were observed
same,"rats with slight limping, avoidance of one hind foot (gait score=1)",[7],No symptoms were detected
same,serum chemistry panel,[7],within normal ranges
same,signs of MSS,"[7]; iv, 50 mg/kg",No signs of MSS
